# B1: TPR t1 (parent)
# chain: GACCAAUCUGCCCUCAGAGCUCGAGAACAUCUUCGGAUGCAGAGGAGGCAGGCUUCGGUGGCGCGAUAGCGCCAACGUCCUCAACCUCCAAUGCAUCCCACCACAUGAUGAUGCCUGAAGAGCCUUGGUUUUUUG
# Variants of: B1
# Experiment: polymerase ribozyme fitness, log enrichment relative to wild type (log ratio); higher = more active; in vitro selection for triplet polymerase activity
# How it was run: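 Only genotypes with ≥10 input reads and ≥1 read per output were kept after Illumina sequencing of input and output libraries. These libraries were PCR-built, transcribed mutants of each subunit of a heterodimeric triplet polymerase ribozyme, each put through one triplicate in vitro selection round with frozen incubation at −7 °C, gel excision of extended constructs, streptavidin-bead capture and RT-PCR. Fitness is a logarithmic ratio of genotype enrichment to wild-type enrichment, from inverse-variance-weighted replicate averages, with the logarithm in base 2.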
row,Variant,polymerase ribozyme fitness (log ratio)
1,G10A C98U C115A,-2.67
2,G10A C102A,-1.65
3,G10A G19A,-0.895
4,G10A G36U G44U G61U C88U A95G U96A G120A,-7.26
5,G10A G39U G42A C124A,-0.542
6,G10A G42A G44A C72U,-1.94
7,G10A G42U,-1.32
8,G10A G44U,-1.5
9,G10A G44U U54C G63A C70A U130C,-4.01
10,G10A G45C C56G G63A,-4.08
11,G10A G47C C89U C124G,-0.208
12,G10A G47C G51C U59G U81C C115A,-5.77
13,G10A G47U C56U C82A A83G,-2.51
14,G10A G48C U54A C94U G110U A121C C123G,-1.01
15,G10A G52A G60A C79A C115A U132A,-1.53
16,G10A G63A,-0.758
17,G10A G63A C86U,-1.07
18,G10A G63A U130G,-0.867
19,G10A G71A A83C U106A A108U,-1.78
20,G10A G71C,-0.717
21,G10A G120U G135C,1.62
22,G10A U14A C56G,-3.83
23,G10A U21G G52A G69C U78G C115G U133G,-7.23
24,G10A U33C,-4.02

row,Variant,polymerase ribozyme fitness (log ratio)
1,G10A U55C C70U,-0.798
2,G10A U81A,-0.546
3,G10A U96A,-0.657
4,G10A U109A,-5.39
5,G10A U109A U133G,-7.59
6,G10A U132A,0.124
7,G10A U133G,-0.322
8,G10C,-0.497
9,G10C A27U G39U,-3.03
10,G10C A37U G63U U96A C124U U129G,-4.44
11,G10C A43U C62A C114U U116C U133G,-6.43
12,G10C A46C C101A C123G U130A,-1.67
13,G10C A46G C124U,-0.222
14,G10C A83U,-1.28
15,G10C C11A C31A G47U G107U G113A,-2.42
16,G10C C11U C62G A84U A108G,-4.22
17,G10C C11U C104A,-0.93
18,G10C C13A G57U G61C A111U,-5.2
19,G10C C13A G58A G71A C98U,-3.11
20,G10C C13G,-0.638
21,G10C C15A G39C,-4.62
22,G10C C15U,-0.996
23,G10C C20A,-3.95
24,G10C C20A G39C A46C,-5.66

row,Variant,polymerase ribozyme fitness (log ratio)
1,G10C C49A G71A,-2.07
2,G10C C70G,-3.67
3,G10C C72U A118G,-1.84
4,G10C C73A C101U U130C,-0.689
5,G10C C73A G128A,-2
6,G10C C89G A121C,0.737
7,G10C G35A G69U U81G C82G C123A,-2.07
8,G10C G42A A43U C80A U132A,-5.05
9,G10C G42A G63U A91C G113A G122U,-4.47
10,G10C G42C,-2.24
11,G10C G42C G44U C72U U87G,-5.88
12,G10C G48C C102U,-2.77
13,G10C G52U C53A,-1.16
14,G10C G63A,-1.49
15,G10C G63A A75G C123U,-0.173
16,G10C G77U A111U,-4.57
17,G10C G120U,-1.23
18,G10C U14G C70U A91C,-4.25
19,G10C U30C G71A G117A,-5.64
20,G10C U59G C88A C104A,-3.65
21,G10C U78C,-1.63
22,G10U,-0.124
23,G10U A18G A43C C72U C80U C85U G120U,-3.18
24,G10U A26U G45A,-2.84

row,Variant,polymerase ribozyme fitness (log ratio)
1,G10U A37U G52A G77C G120U,0.713
2,G10U A37U G52U C56U C73G U116G,-4.51
3,G10U A37U G120C U129C,0.637
4,G10U A43G G47A A74G,-3.06
5,G10U A46U C73U C88A U133A,-2.31
6,G10U A50C C80U G120U,-0.0895
7,G10U A75U G77A C86A,-1.69
8,G10U A84G C86A,-0.969
9,G10U A90G,-0.702
10,G10U A95U G128A,-3.44
11,G10U A111U,-3.44
12,G10U C11G G35A C64U C123A,-5.01
13,G10U C11G G47C G58A C62G,-3.87
14,G10U C11G G60C A95G,-0.947
15,G10U C11U G71U C79U,-0.361
16,G10U C13G C73U G122U,-0.626
17,G10U C13G U78A C104U,0.299
18,G10U C13U G57C G58U C88U G107A C123U,-6.52
19,G10U C15G,-1.83
20,G10U C20A C49U G65C C94A U109G,-7.47
21,G10U C22G C56U C72U A90G C114U,-3.41
22,G10U C22U A46G U54G C56G G61A A74U U92A C114A U116A,-6.68
23,G10U C28U C53U C73U U96C C104A G110A,0.843
24,G10U C49U C72G C82A C114A,-2.83

row,Variant,polymerase ribozyme fitness (log ratio)
1,G10U C53G C56U A74C C76A A95G G122U,-0.515
2,G10U C53G G61C A84U,-1.21
3,G10U C53U,0.0146
4,G10U C53U A91U U92A C97U,-6.09
5,G10U C53U G65A A91U C104G A121U,-7.6
6,G10U C56A A74G U132C,-1.83
7,G10U C56U,0.114
8,G10U C56U U116A,-3.65
9,G10U C62A,-1.53
10,G10U C62U,-0.108
11,G10U C62U C88U C89G A121G U132C,0.563
12,G10U C70U A83U A90G C115U,-2.59
13,G10U C79A,-0.723
14,G10U C82G G110A,-1.83
15,G10U C101A,-1.56
16,G10U C101A U125G,-2.32
17,G10U C114U,-2.39
18,G10U G17C G45U G93U C123G,-4.78
19,G10U G17U G45A C85U C123G,-0.92
20,G10U G23U A26G G63A C114G,-5.43
21,G10U G25U C34A C99U G113C,-6.47
22,G10U G35A G117C,-6.56
23,G10U G35C,-5.02
24,G10U G39C,-0.652

row,Variant,polymerase ribozyme fitness (log ratio)
1,G10U G39U G77C A100C,-2.58
2,G10U G42U G69U C115A,-1.2
3,G10U G44C G61C,-3.37
4,G10U G45A U106A,-0.0856
5,G10U G47C C64U,-1.28
6,G10U G47U A74G G113U C123G U126A,-3.52
7,G10U G47U G110U G117U G122A,-4.52
8,G10U G48C,-0.778
9,G10U G52U C73G,-0.827
10,G10U G52U U96G,-0.544
11,G10U G60U,-0.931
12,G10U G61A,0.0248
13,G10U G93A C99U,-4.71
14,G10U U14A,-1.65
15,G10U U14A C53G A95U G120U,0.647
16,G10U U14A C73A A83U,-1.57
17,G10U U21G A46U,-3.02
18,G10U U21G C64A A95G C123U U125A,-6.83
19,G10U U30C A37G C56U C73U,-4.17
20,G10U U38G A41G,-1.27
21,G10U U92G C94U U133A,-2.28
22,C11A A16U A24U C31G C34G A37C C73A C115U G117C,-7.35
23,C11A A18C,-3.94
24,C11A A18C A43C C53U,-4.45

row,Variant,polymerase ribozyme fitness (log ratio)
1,C11A A18U,-3
2,C11A A18U C49A C123G,-2.08
3,C11A A27C,-5.15
4,C11A A27G A41U C49G G61U G120A,-3.04
5,C11A A27U C34A C72G C97A G120U G127A U129C,-6
6,C11A A29U G36A C124U,-4.08
7,C11A A37G U81G,-5.66
8,C11A A37U G63C U116G,-5.29
9,C11A A41U G71U C72U A100U A103G C115A,-6.78
10,C11A A46U,-2.08
11,C11A A46U C53A C72A,-2.19
12,C11A A46U C64A G113U,-6.19
13,C11A A46U G93A,-3.04
14,C11A A66U G71A A121C U130A,-1.61
15,C11A A83G C85U G120C,0.982
16,C11A A84C C85U U87A C89G C124A,-4.77
17,C11A A84U U92C C98U,-4.14
18,C11A A111C,-1.42
19,C11A A111C U131A,-2.03
20,C11A C12A C22A C40U A46U U78C C114A,-6.96
21,C11A C12A C62U C102A C115U U130G,-8.31
22,C11A C12U C40A C56U C89A G122U,-2.66
23,C11A C13G C20U C53U C64U U78G,-3.27

# Source: the RNAGym collection of RNA variant scans (doi:10.1073/pnas.2313332121)
